Blank lines part the entries; values can stand above or below the molecule they belong to.
Key:
[1] = system: interaction between AR and PTEN; test: Co-immunoprecipitation of AR and PTEN in CWR22 cells; format: cell-based, human
Experimental: 28. […] (C) The cell lysates from the CWR22 were immunoprecipitated by anti-PTEN antibody, followed by Western blot analysis. […] The cells were harvested for co-immunoprecipitation. Lane 1: 10% input; Lane 2: IP by non-immune IgG; Lane 3: IP by anti-AR antibody; Lane 4: The PTEN protein was depleted from the cell lysates by anti-PTEN antibody before IP by anti-AR antibody; Lane 5: IP by anti-PTEN antibody. (E) CWR22 cells were transfected with vector or Akf for 48 h and the cells were harvested for immunoprecipitation assay.
314. The immunoprecipitation and Western blotting were performed as previously described (Qiu et al. (1998) Nature 393, 83-5). The cell extracts (1 mg) were immunoprecipitated with the indicated antibody. The immunocomplexes were subjected to 8% SDS-PAGE and immunoblotted with the indicated antibody.

U87MG cells = test: PTEN-induced apoptosis in AR-negative U87MG cells, TUNEL assay; format: cell-based
Experimental: (§1) 31. […] (D) The LNCaP cells were transfected with plasmids as indicated for 16 h, and the medium was changed to 0.1% CDS media for 2 days. The cell apoptosis was determined by TUNEL assay (E) The LNCaP cells were transfected with plasmids as indicated for 16 h, harvested, and the cell extracts were subjected to SDS-PAGE. The Akt activity was determined by Western blotting using phospho(S473)-Akt antibody. (F) The U87MG cells were transfected with plasmids as indicated for 16 h, and the medium was changed 0.1% CDS media for 2 days. The cell apoptosis was determined by TUNEL assay. Data for luciferase activity and apoptosis are means±s.d. from three independent experiments.
311. For the apoptosis assay, the cells were transfected with plasmids for 24 h and grown in 0.1% charcol-stripped serum (CDS) media. The apoptosis was determined 2 days after transfection using the TUNEL assay according to the standard procedures (Oncogene). At least 200 cells were scored for each sample and data are means±s.d. from three independent experiments.

AR transactivation [2] = test: AR transactivation, (ARE)4-luc in CWR22 cells; format: cell-based, human
Experimental: as §1
312. […] The cells were lysed and the luciferase activity was detected by the dual luciferase assay according to standard procedures.

AR transactivation [3] = test: AR transactivation, MMTV-luc / (ARE)4-luc luciferase reporter assay; format: cell-based; details: LNCaP
AR protein levels = test: AR protein (Western blot) and AR mRNA (Northern blot) levels; format: cell-based; details: LNCaP; 10 nM DHT
Akt = Akt activity in LNCaP cells, Western blot with phospho-Akt (Ser473) antibody; format: cell-based; details: LNCaP
Experimental: 18. […] (A) Akt suppressed androgen/AR-induced p21 promoter activity. […] (B) Androgen/AR-induced PC-3(AR)6 apoptosis and p21 protein expression was blocked by Akt PC-3(AR)6 was transfected with pCDNA3, cAkt, or dAkt, as indicated, for 16 h. […] (C) AR-induced p21 protein expression was enhanced by dAkt in LNCaP cells. […] LNCaP stable transfection with dAkt was confirmed by western blot assay using phospho-Akt (Ser473) antibody. […] TPA was then added for another 24 h and cell apoptosis was determined by TUNEL assay. […] IGF-1 was added for another 30 min, followed by 10 nM TPA treatment for another 24 h. The apoptosis was determined by TUNEL assay. The data are means±s.d. from three independent experiments.
as §1

LNCaP cells = test: PTEN-induced apoptosis in LNCaP cells, TUNEL assay; format: cell-based
PSA mRNA expression = PSA mRNA expression in LNCaP cells, Northern blot; format: cell-based; details: presence of androgen
AR-Smad3 interaction = molecular target: T1, AR-Smad3 interaction (Homo sapiens, UniProt P10275); test: GST-Smad3 pull-down of AR with added Smad4; format: binding; details: GST-Smad3, [35S]-AR, purified Smad4 added
T1 construct: in vitro transcribed/translated [^35S]-labeled full-length AR and GST-Smad3 (2 μg); made in house; host or cells: AR: TNT-coupled reticulocyte lysate (Promega); GST-Smad3: E. coli BL21 (DE3) pLysS
T1 sequence (P10275 1-920): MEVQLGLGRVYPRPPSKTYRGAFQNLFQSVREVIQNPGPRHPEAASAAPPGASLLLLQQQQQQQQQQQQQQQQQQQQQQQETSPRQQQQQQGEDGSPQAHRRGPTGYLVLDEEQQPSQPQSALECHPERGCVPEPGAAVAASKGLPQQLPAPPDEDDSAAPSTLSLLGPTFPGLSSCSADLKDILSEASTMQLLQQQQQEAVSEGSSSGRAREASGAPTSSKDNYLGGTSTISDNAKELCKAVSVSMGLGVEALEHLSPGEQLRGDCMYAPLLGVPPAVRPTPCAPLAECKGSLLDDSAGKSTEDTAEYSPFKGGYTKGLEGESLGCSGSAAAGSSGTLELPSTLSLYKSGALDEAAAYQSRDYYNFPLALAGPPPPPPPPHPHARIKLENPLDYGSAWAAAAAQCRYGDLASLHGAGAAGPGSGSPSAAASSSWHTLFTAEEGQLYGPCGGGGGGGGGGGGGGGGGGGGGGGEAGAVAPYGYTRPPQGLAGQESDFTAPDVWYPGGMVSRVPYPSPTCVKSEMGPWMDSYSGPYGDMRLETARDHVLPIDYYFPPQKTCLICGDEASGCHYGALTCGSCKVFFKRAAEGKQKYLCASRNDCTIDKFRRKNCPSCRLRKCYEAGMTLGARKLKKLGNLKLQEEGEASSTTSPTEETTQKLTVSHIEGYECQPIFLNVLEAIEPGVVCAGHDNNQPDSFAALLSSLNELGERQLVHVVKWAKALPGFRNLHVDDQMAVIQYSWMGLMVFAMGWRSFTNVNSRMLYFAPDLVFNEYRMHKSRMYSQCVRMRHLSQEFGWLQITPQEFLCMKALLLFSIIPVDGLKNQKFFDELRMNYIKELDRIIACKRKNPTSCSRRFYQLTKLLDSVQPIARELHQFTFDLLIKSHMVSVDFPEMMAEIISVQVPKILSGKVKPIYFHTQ
Experimental: 34. […] Complex bound to GST columns was subjected to SDS-PAGE and autoradiography. […] (C) The indicated amounts of purified Smad4 proteins were added to fixed volumes of in vitro transcribed/translated [^35S]-labeled full-length AR and GST-Smad3 (2 μg) to test for interaction. Bands were detected using a phosphoimager. A representative blot of three independent experiments is shown.
335. Fusion proteins of GST-Smad3 and GST-AR, and GST protein alone were obtained by transforming expressing plasmids into BL21 (DE3) pLysS strain competent cells followed with 1 mM IPTG induction. GST-fusion proteins then were purified by Glutathione-Sepharose™ 4B (Pharmacia). The wtAR and deletion mutant AR (mtAR) proteins labeled with [^35S] were generated in vitro using the TNT-coupled reticulocyte lysate system (Promega). […] The bound proteins were separated on an 8% SDS-polyacrylamide gel and visualized by using autoradiography.

AR transactivation [4] = test: AR transactivation with Smad3/Smad4, CAT reporters in PC3-AR2, PC-3 and LNCaP cells; format: cell-based, human; details: PC3-AR2, MMTV-CAT
Experimental: 32. […] LNCaP cell were transfected with Smad3 or Smad4 expression vector instead of PC-3(AR)2 cells in experiments otherwise identical with those in A (B), PC-3(AR)2 cells stably transfected with AR were over-expressed with the indicated amounts of Smad3 or Smad4 or SRC-1. 3 μg of MMTV-CAT was used as a reporter plasmid in all experiments. All values represent the averages±SD of four independent experiments. […] PSA expression level was determined by Northern blotting. The probe was obtained from exon 1 of the PSA gene and labeled with [α-^32P] dCTP. A β-actin probe was used as a control for equivalent mRNA loading. (C, Table 1) The RNA samples from (A) were reverse transcribed to cDNAs and all of the samples were subjected to real-time CR using an ABI Prism 7700 Sequence Detection System (Perkin-Elmer Applied bio systems). PCR was performed using the SYBR Green PCR Core Reagents kit (Perkin-Elmer Applied Bio systems). PSA and β-actin forward, reverse primers concentrations were 2.5 μM. To reduce variability between replicates, PCR premixes which contained all reagents except for total RNA were prepared and aliquoted into 1.5 ml microfuge tubes. Specific PCR amplification products were detected by the fluorescent double-stranded DNA-binding dye SYBR Green core reagent kit. Experiments were performed with triplicates for each data point.
37. […] (A) PC3-AR2, SW480·C7, and PC-3 cells were transiently co-transfected with either MMTV-CAT, PSA-CAT, 5XARE-CAT, or (TAT)2-CAT (3 μg), in the presence of AR, Smad3, Smad4 or Smad3/Smad4 as indicated. Each CAT activity is presented relative to the transactivation observed in the absence of Smad3. All values represent the mean±SD of three independent experiments.
333. Human prostate cancer DU145 cells and PC-3 cells were maintained in Dulbecco's Minimum Essential Medium containing penicillin (25 U/ml), streptomycin (25 μg/ml), and 5% fetal calf serum. Transfections were performed using the calcium phosphate precipitation method and cells were harvested after 24 h for the chloramphenicol acetyltransferase (CAT) assay, as described previously (Kang, et al. (1999) J. Biol. Chem. 274, 8570-8576). The CAT activity was visualized and quantitated by STORM 840 (Molecular Dynamics). At least three independent experiments were carried out in each case. The SW480·C7 cells and PC-3(AR)2 cells are the gifts from Dr. Eric J. Stanbridge and Dr. T. J. Brown

- Effect on PTEN suppression of AR transactivation (AR transactivation [3]): dramatically reduce
B1: ARf: the interaction domain within AR (aa; 483-651) (protein)
chain: YTRPPQGLAGQESDFTAPDVWYPGGMVSRVPYPSPTCVKSEMGPWMDSYSGPYGDMRLETARDHVLPIDYYFPPQKTCLICGDEASGCHYGALTCGSCKVFFKRAAEGKQKYLCASRNDCTIDKFRRKNCPSCRLRKCYEAGMTLGARKLKKLGNLKLQEEGEASSTTS
modifications: left off: small tags and cut ends
- Interaction between AR and PTEN [1]: disrupted the interaction between AR and PTEN
- Effect on PTEN-induced apoptosis (U87MG cells): only marginal effects
- Effect on PTEN suppression of AR transactivation (AR transactivation [2]): significantly reduce PTEN suppressive effect on AR transactivation
- Effect on PTEN-mediated promotion of AR degradation (AR protein levels): dramatically reduce
- Effect on PTEN-mediated inhibition of Akt activity (Akt): little influence
- Effect on PTEN-induced apoptosis (LNCaP cells): markedly reduced PTEN-induced apoptosis

B2: Smad4: candidate tumor suppressor, shared component of Smad signaling (protein)
chain: MDNMSITNTPTSNDACLSIVHSLMCHRQGGESETFAKRAIESLVKKLKEKKDELDSLITAITTNGAHPSKCVTIQRTLDGRLQVAGRKGFPHVIYARLWRWPDLHKNELKHVKYCQYAFDLKCDSVCVNPYHYERVVSPGIDLSGLTLQSNAPSSMMVKDEYVHDFEGQPSLSTEGHSIQTIQHPPSNRASTETYSTPALLAPSESNATSTANFPNIPVASTSQPASILGGSHSEGLLQIASGPQPGQQQNGFTGQPATYHHNSTTTWTGSRTAPYTPNLPHHQNGHLQHHPPMPPHPGHYWPVHNELAFQPPISNHPAPEYWCSIAYFEMDVQVGETFKVPSSCPIVTVDGYVDPSGGDRFCLGQLSNVHRTEAIERARLHIGKGVQLECKGEGDVWVRCLSDHAVFVQSYYLDREAGRAPGDAVHKIYPSAYIKVFDLRQCHRQMQQQAATAQAAAAAQAAAVAGNIPGPGSVGGIAPAISLSAAAGIGVDDLRRLCILRMSFVKGWGPDYPRQSIKETPCWIEIHLHRALQLLDEVLHTMPIADPQPLD
- Effect on androgen-induced PSA mRNA expression (PSA mRNA expression): slight suppression of PSA mRNA expression
- AR-Smad3 interaction (AR-Smad3 interaction): decrease this AR-Smad3 interaction in a dose-dependent manner
- Effect on Smad3-enhanced AR transactivation (AR transactivation [4]): significantly repressed
- Effect on androgen-activated AR transactivation (AR transactivation [4]; 10^−8 M DHT): slightly suppressed

B3: PTEN-#1: PTEN fragment (aa, 1-107) that does not interact with AR (protein)
chain: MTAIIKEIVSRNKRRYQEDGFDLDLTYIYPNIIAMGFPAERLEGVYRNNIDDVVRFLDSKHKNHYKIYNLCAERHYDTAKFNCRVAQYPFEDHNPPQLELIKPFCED
modifications: left off: a dimerising Fc or GST
- Effect on PTEN functions (AR degradation, AR transactivation) (AR transactivation [3]): only marginal effect

Source: patent publication US20040235717A1, “Suppression of androgen receptor transactivation through new pathways to ar and ar coactivators and repressors” (priority 2001, published 2004)
